In experiment [1] the target is SARS-CoV-2 D614G spike without stabilizing modifications (on cells or pseudovirus) (SARS-CoV-2) (UniProt P0DTC2). The experiment in a line: cell-based or functional assay.
Experiment [2] has as its target SARS-CoV-2 B.1.1.7 (variant Alpha) spike on pseudovirus (SARS-CoV-2) (UniProt P0DTC2). The experiment in a line: cell-based or functional assay.

Consider “isotype control antibody with irrelevant binding”, for which the Pseudovirus IC50 in experiment [1] and in experiment [2] was greater than 5 µM in each case.
